# Results published in patent US20190376046.
# Experiments:
# [1] = molecular target: T1, Phosphoglycerate kinase 1 (encoded by PGK1) (UniProt P00558)
# T1 sequence: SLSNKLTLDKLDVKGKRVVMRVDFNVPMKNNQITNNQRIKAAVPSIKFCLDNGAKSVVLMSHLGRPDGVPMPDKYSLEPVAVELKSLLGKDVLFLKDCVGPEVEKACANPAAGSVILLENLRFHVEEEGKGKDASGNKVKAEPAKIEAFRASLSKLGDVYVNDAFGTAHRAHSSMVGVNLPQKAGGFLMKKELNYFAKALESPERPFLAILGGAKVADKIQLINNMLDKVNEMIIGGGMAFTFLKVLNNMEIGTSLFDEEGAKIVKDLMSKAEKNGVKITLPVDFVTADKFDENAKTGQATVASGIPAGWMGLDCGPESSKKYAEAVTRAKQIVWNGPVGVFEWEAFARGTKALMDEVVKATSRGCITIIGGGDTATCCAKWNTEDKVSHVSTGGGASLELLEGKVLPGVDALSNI
# [2] = molecular target: Alpha-enolase (encoded by ENO1) (UniProt P06733)
# Chain of Alpha-enolase (encoded by ENO1) (P06733 2-434): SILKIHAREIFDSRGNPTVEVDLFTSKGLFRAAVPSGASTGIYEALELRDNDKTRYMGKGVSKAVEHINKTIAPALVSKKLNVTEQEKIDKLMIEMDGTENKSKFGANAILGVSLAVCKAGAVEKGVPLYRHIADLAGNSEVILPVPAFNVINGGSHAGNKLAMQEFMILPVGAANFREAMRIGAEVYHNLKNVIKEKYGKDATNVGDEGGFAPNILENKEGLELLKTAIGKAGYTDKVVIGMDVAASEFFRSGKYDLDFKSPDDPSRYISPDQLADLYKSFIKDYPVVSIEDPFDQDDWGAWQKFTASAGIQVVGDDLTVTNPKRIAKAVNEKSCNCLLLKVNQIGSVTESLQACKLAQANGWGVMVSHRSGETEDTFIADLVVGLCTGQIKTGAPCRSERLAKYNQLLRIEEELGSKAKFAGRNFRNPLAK
# [3] = molecular target: T2, Fructose-bisphosphate aldolase A (encoded by ALDOA) (UniProt P04075)
# T2 sequence: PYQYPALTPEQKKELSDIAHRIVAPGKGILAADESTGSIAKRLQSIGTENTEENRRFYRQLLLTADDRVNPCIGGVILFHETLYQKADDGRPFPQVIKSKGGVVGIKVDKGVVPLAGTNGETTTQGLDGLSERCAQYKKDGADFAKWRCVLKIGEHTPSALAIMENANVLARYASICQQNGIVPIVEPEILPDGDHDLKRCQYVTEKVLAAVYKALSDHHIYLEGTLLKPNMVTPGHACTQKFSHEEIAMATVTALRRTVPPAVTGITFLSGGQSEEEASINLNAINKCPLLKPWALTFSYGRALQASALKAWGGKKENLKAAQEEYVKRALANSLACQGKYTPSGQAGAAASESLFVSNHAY
# [4] = molecular target: Glyceraldehyde-3-phosphate dehydrogenase (encoded by GAPDH) (UniProt P04406)
# Chain of Glyceraldehyde-3-phosphate dehydrogenase (encoded by GAPDH) (P04406 2-335): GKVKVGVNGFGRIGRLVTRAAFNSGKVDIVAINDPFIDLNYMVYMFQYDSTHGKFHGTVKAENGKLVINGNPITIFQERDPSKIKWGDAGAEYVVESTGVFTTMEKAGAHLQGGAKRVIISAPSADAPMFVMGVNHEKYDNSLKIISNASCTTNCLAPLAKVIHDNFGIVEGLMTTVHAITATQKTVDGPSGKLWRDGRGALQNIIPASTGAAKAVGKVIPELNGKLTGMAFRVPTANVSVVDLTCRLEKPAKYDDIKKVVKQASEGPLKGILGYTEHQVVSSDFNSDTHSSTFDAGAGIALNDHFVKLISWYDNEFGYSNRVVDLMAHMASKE
substance,measurement,setting,value
"Sirtuin 2 (SIRT2), human","acetylation level (IP with specific antibody, western blot with anti-acetyl-Lys, and the reverse)",[1],"forced expression of SIRT2 in hESCs prominently deacetylated all four enzymes tested (aldolase, PGK1, enolase, and GAPDH)"
same,"acetylation level after SIRT2 knockdown in hDFs (IP, western blot with anti-acetyl-Lys)",[1],"Acetylation levels of aldolase, enolase, PGK1 and GAPDH were substantially increased in SIRT2 KD fibroblasts"
same,"acetylation level (IP with specific antibody, western blot with anti-acetyl-Lys, and the reverse)",[2],"forced expression of SIRT2 in hESCs prominently deacetylated all four enzymes tested (aldolase, PGK1, enolase, and GAPDH)"
same,"acetylation level after SIRT2 knockdown in hDFs (IP, western blot with anti-acetyl-Lys)",[2],"Acetylation levels of aldolase, enolase, PGK1 and GAPDH were substantially increased in SIRT2 KD fibroblasts"
same,"acetylation level (IP with specific antibody, western blot with anti-acetyl-Lys, and the reverse)",[3],"forced expression of SIRT2 in hESCs prominently deacetylated all four enzymes tested (aldolase, PGK1, enolase, and GAPDH)"
same,"acetylation level after SIRT2 knockdown in hDFs (IP, western blot with anti-acetyl-Lys)",[3],"Acetylation levels of aldolase, enolase, PGK1 and GAPDH were substantially increased in SIRT2 KD fibroblasts"
same,"acetylation level (IP with specific antibody, western blot with anti-acetyl-Lys, and the reverse)",[4],"forced expression of SIRT2 in hESCs prominently deacetylated all four enzymes tested (aldolase, PGK1, enolase, and GAPDH)"
same,"acetylation level after SIRT2 knockdown in hDFs (IP, western blot with anti-acetyl-Lys)",[4],"Acetylation levels of aldolase, enolase, PGK1 and GAPDH were substantially increased in SIRT2 KD fibroblasts"
